Assay results from patent US20210030857A1 (NGM BIOPHARMACEUTICALS, published 2021).

Legend:
[1] = biological target: cynomolgus beta klotho / human FGFR1c receptor complex on cells (cynomolgus monkey (Macaca …)); experiment: cell-based or functional assay
[2] = biological target: T1, human beta klotho expressed on cells (human, UniProt Q86Z14 1-1044); experiment: FACS competition on HuKLB-overexpressing cells; row antibody unlabelled; competitor 5H23-Alexa647 (labelled, EC10); MFI of the label
T1 construct: also called HuKLB overexpressing cells; Human KLB
T1 sequence: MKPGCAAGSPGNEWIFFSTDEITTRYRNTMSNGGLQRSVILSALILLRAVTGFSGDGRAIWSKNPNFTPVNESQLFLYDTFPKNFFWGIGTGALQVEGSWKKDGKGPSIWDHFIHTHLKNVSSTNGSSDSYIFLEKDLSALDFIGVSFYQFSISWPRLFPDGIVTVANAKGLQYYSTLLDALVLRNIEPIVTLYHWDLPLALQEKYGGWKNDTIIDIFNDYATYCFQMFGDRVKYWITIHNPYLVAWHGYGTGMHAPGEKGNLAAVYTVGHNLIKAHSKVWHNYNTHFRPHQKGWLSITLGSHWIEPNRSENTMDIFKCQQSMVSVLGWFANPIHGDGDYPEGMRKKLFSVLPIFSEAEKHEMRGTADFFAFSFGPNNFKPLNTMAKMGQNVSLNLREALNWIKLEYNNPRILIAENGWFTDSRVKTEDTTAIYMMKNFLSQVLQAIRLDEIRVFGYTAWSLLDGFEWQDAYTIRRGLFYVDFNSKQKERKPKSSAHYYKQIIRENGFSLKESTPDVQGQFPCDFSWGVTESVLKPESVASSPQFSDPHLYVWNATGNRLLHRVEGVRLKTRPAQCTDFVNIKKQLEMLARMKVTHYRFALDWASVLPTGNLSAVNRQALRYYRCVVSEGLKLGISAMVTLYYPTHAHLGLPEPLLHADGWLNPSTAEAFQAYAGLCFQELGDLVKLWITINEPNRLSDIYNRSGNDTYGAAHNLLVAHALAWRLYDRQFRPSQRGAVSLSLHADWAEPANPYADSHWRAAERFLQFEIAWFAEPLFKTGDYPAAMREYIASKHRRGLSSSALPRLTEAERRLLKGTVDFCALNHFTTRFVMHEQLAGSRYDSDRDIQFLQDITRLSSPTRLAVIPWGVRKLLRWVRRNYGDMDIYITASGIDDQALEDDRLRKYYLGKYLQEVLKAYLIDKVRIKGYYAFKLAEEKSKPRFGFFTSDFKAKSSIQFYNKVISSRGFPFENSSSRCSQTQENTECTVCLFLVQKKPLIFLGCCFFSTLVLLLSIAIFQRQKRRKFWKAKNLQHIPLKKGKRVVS
Experimental: (§1) For example, for competition binding assays by FACS analysis, antibody standards were prepared that were conjugated to a fluorochrome using either A488 or A647 antibody labeling kit (Invitrogen) following manufacturer's instructions. A dose titration of the conjugated antibody standard was evaluated using HuKLB overexpressing cells. The plateau of the maximal signal of antibody binding is EC=100 and the background signal is EC=0. Competition by FACS against the fluorochrome labeled antibody was performed by pre-incubating HuKLB overexpressing cells with hybridoma supernatants for 15 minutes at room temperature. Without washing, an EC=10 concentration of A488 or A647 labelled antibody standard was added. EC=10 for an individual antibody was determined by 10% of signal using the maximum signal as (100%) and background signal as (0%). After 30 minutes at 4° C., cells are washed and analyzed by FACS. […] A partial competing antibody is one sample that show signal between labelled antibody alone and background. Antibodies that show complete competition against the same standard antibody are considered to be in the same bin.
(§2) Representative results are shown in Table 12 below reported as mean fluorescence intensity (MFI).

[3] = biological target: T2, human beta klotho / human FGFR1c receptor complex on cells (human, UniProt Q86Z14 1-1044; P11362 22-822); experiment: cell-based or functional assay
[4] = biological target: T1, human beta klotho expressed on cells; experiment: FACS competition on HuKLB-overexpressing cells; row antibody unlabelled; competitor 3I13-Alexa488 (labelled, EC10); MFI of the label
Experimental: as §1, §2

[5] = biological target: T2, human beta klotho / human FGFR1c …; experiment: cell-based or functional assay; remark: listed apart in the source
[6] = biological target: T2, human beta klotho / human FGFR1c …; experiment: cell-based or functional assay; remark: listed apart in the source
[7] = biological target: T3, human beta klotho protein (soluble, used in Biacore) (human, UniProt Q86Z14 53-997, limits assumed); experiment: Biacore SPR (as in Example 2)
T3 construct: also called HuKLB; huKLB
T3 sequence: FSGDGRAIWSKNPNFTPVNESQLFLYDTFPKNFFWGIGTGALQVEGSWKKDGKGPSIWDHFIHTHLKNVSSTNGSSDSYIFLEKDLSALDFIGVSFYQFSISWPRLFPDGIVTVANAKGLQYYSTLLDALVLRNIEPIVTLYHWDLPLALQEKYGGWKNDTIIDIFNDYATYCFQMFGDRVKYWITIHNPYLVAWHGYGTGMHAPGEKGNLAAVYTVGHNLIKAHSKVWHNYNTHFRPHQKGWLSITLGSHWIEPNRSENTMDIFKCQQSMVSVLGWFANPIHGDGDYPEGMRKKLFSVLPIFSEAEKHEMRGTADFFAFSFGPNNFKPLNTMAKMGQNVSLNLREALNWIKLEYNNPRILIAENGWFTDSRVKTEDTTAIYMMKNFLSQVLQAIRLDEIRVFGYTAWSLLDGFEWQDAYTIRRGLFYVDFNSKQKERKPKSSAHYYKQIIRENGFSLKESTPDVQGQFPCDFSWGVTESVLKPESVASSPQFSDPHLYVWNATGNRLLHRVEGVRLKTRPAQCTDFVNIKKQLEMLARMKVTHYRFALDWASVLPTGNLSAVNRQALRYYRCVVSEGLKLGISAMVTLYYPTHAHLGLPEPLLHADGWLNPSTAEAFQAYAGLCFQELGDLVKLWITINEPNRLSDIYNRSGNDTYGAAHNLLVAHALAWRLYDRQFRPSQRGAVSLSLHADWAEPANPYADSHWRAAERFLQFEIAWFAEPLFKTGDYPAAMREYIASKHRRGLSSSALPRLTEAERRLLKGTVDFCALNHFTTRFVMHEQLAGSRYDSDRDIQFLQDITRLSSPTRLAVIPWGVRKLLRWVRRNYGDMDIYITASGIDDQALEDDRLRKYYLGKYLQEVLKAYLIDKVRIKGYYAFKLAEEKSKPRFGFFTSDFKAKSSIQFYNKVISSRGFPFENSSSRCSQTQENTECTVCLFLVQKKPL

[8] = biological target: T4, cynomolgus monkey beta klotho protein (soluble, used in Biacore) (cynomolgus monkey (Macaca fascicularis), UniProt Q86Z14 53-996 (human entry), limits assumed); experiment: Biacore SPR (as in Example 2)
T4 construct: Protein in solution; also called Cyno KLB; cyKLB
T4 chain: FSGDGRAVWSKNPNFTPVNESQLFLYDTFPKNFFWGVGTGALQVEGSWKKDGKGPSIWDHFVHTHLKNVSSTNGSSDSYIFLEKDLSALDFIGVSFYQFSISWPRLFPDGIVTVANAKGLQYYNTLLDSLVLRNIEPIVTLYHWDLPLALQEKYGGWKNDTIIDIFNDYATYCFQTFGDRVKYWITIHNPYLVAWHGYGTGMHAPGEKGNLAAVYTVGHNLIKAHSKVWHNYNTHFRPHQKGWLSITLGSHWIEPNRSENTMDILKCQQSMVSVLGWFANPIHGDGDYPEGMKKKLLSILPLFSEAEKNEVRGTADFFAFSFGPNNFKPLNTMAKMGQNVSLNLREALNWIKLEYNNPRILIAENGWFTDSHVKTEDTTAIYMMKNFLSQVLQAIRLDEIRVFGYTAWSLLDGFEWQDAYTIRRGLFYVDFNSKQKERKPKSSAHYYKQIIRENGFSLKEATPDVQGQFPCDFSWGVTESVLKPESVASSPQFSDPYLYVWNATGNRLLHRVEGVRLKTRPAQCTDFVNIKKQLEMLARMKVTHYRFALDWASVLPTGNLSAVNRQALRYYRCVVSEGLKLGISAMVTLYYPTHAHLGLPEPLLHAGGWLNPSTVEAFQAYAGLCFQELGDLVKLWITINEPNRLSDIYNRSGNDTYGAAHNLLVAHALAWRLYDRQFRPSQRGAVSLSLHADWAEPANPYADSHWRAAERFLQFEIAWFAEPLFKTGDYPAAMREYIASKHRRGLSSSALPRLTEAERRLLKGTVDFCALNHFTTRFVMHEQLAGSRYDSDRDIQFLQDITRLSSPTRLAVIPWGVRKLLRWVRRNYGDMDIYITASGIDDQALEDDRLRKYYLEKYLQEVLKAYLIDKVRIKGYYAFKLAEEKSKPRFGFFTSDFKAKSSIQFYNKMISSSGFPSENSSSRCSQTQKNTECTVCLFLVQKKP

cynomolgus beta klotho / human FGFR1c receptor complex on cells (cynomolgus monkey (Macaca …)), sequence (chain, as listed by the source limits assumed, chain 1 of 2): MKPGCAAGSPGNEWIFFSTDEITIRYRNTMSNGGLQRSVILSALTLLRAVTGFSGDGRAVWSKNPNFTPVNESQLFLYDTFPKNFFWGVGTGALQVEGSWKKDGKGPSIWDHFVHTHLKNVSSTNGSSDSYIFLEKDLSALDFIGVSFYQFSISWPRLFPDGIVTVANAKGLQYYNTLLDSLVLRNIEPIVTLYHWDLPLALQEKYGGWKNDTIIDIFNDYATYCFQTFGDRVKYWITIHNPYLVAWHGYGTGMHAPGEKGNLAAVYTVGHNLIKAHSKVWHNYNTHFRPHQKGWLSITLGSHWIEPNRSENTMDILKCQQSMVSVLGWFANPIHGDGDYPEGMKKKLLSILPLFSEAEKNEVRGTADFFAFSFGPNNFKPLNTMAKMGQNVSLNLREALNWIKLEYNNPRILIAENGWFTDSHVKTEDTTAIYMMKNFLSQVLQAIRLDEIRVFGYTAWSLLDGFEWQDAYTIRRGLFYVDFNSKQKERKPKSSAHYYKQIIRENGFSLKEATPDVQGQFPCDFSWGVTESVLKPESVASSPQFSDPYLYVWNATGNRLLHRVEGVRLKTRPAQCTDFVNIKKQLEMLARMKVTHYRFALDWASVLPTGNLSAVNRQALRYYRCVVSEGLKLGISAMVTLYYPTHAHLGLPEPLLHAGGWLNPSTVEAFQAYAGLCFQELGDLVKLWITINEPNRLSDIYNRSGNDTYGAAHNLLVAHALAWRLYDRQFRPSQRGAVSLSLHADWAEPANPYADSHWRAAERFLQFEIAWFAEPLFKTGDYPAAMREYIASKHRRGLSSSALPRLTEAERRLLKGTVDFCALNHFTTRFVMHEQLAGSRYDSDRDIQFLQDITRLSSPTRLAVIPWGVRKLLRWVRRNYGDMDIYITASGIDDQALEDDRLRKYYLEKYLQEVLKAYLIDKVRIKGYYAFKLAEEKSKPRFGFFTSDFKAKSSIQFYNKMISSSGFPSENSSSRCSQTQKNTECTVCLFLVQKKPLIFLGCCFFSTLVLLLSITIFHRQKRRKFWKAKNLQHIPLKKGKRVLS
cynomolgus beta klotho / human FGFR1c receptor complex on cells (cynomolgus monkey (Macaca …)), sequence (chain, as listed by the source limits assumed, chain 2 of 2): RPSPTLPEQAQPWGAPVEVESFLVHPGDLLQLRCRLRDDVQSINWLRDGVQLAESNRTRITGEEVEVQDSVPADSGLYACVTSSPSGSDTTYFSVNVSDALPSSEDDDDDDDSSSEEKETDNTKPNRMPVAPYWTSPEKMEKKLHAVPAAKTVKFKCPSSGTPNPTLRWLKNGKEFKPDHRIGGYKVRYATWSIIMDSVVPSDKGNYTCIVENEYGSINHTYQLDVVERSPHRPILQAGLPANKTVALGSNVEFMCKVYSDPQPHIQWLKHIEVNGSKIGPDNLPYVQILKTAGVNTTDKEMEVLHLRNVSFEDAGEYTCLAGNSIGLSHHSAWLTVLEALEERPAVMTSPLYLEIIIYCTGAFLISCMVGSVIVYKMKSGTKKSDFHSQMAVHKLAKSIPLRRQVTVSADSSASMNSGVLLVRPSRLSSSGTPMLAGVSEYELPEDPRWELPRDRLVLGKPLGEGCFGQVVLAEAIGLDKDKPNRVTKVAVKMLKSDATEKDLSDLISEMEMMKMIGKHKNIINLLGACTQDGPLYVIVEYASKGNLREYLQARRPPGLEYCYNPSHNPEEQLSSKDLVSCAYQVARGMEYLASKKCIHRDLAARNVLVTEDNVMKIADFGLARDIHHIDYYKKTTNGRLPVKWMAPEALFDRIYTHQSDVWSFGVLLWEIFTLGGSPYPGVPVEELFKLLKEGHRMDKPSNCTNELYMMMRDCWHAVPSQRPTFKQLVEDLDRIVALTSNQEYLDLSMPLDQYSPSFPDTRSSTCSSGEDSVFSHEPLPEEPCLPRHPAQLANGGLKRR

Row | Binder | HEK293 cynoKLB/R1c reporter assay EC50, Experiment - A [1] [nM] | HEK293 cynoKLB/R1c reporter assay EC50, Experiment - B [1] [nM] | Mean Florescence Intensity (MFI) [2] [MFI] | HEK293 huKLB/R1c reporter assay EC50, Experiment - A [3] [nM] | HEK293 huKLB/R1c reporter assay EC50, Experiment - B [3] [nM] | Mean Florescence Intensity (MFI) [4] [MFI] | hAdip pERK assay EC50, Experiment - B [5] [nM] | EC50-adipocyte [6] [nM] | EC50 reporter assay [6] [nM] | Kd [7] [nM] | Kd [8] [nM]
1 | antibody 1G19 (antibody, V domains shown, Murine monoclonal antibody) VH: QVQLQESGPGLVKPSQSLSLTCSVTGYSITSGYYWNWIRQFPGNKLEWMGYINYGGSNNYNPSLKNRISITRDTSKNQFFLKLTSVTTEDTATYYCARRGAYYSNYDSFDVWGTGTTVTVSS VL: DIKMTQSPSSMYASLGERVTITCKASQDINSYLSWFQQKPGKSPKTLIYRANRLVDGVPSRFSGSGSGQDYSLTISSLEYEEMGIYYCLQYDEFPYTFGGGTKLEIK | 2.35 | 2.45 | 2.2 | 0.231 | 0.127 | 29 | 1.3 | – | – | – | –
2 | humanized 5H23 antibody vH3-vL2 (antibody, human IgG1, kappa, V domains shown, Probably the same antibody as m13; also called vH3 (vL2 group)) VH: QVQLQQSGAEVKKPGASVKVSCKASGYTFTSYDINWVRQAPGQGLEWIGWIYPGDGSTKYNEKFKGKATITRDTSASTAYMELSSLRSEDTAVYFCARSDYYGSRSFAYWGQGTLVTVSS VL: DIVMTQSPDSLAVSLGERATINCRASKSVSTSGYVYMHWYQQKPGQPPKLLIYLASYLESGVPDRFSGSGSGTDFTLTISSVQAEDVAVYYCQHSRDLTFPFGGGTKLEIKR | – | – | – | – | – | – | – | 5.5 | 0.68 | 0.23 | 0.59
